Literature values in publication PMC6605686.

Molecular target: Glu325 (UniProt position 325, TLHMFEVPFLL)
Assay: kinetics
Details: sugar binding to LacY; apparent pK of galactoside affinity

Substance: Lactose permease (LacY) (Escherichia coli)
- pKa: ∼10.5
